In the experiment the target is KIX domain (residues 568-672) of mouse CBP (mouse) (UniProt P45481). As to the kind of experiment: NMR titration.
Chain of KIX domain (residues 568-672) of mouse CBP (mouse) (P45481 568-672): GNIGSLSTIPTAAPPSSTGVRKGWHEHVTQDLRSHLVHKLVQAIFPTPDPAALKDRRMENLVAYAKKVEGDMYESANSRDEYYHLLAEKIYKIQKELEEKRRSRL

Consider “p53(14-28) (from UniProt P04637 14-28) (peptide)”, for which the Kd (in general, the free concentration of one partner at which half of the binding sites on the other are occupied at equilibrium, for simple one-to-one binding) was 214 µM.

The record behind these values is article PMC2765525.
